Experimental data as given in US20170168078A1 (EISAI R AND D MANAGEMENT, published 2017).

B1: Monoclonal antibody 19D4.B7 (antibody, mouse IgG2a, V domains shown)
VH: GAELVKPGASVKLSCTASGFNIKHPYMHWVKQRPDQGLEWIGRIDPANGNTKYDPKFQGKATITADTSSNTAYLQLSSLTSEDTAVYYCGREEVADYTMDYWGQGTSVTVSS
VL: PASLAVSLGQRATISCRASESVDTYGNNFIHWYQQKPGQPPKLLIYLASNLESGVPARFSGSGSRTDFTLTIDPVEADDAATYYCQQNNGDPWTFGGGTKLEIKR
notes: It was labelled with Ru (about 13 labels per IgG) when used as the detector in the ECL assays; also called ATCC PTA-11884
B2: Monoclonal antibody 26B3.F2 (antibody, mouse IgG1, V domains shown)
VH: GPELVKPGASVKISCKASDYSFTGYFMNWVMQSHGKSLEWIGRIFPYNGDTFYNQKFKGRATLTVDKSSSTAHMELRSLASEDSAVYFCARGTHYFDYWGQGTTLTVSS
VL: PASLSASVGETVTITCRTSENIFSYLAWYQQKQGISPQLLVYNAKTLAEGVPSRFSGSGSGTQFSLKINSLQPEDFGSYYCQHHYAFPWTFGGGSKLEIKR
notes: also called MAb 26B3; ATCC PTA-11885
B3: Monoclonal antibody 24F12.B1 (antibody, mouse IgG1, V domains shown)
VH: SGGGLVRPGGSLKLSCAASGFTFSSYAMSWVRQSPEKRLEWVAEIGSGGSYTYYPDTVTGRFTISRDNAKSTLYLEMSSLRSEDTAIYYCARETTAGYFDYWGQGTTLTVSS
VL: TSSLSASLGDRVTISCSASQGINNFLNWYQQKPDGTVKLLIYYTSSLHSGVPSRFSGSGSGTDYSLTISNLEPEDIAIYYCQHFSKLPWTFGGGTKLEIKR
notes: also called ATCC PTA-11886
B4: Monoclonal antibody 9F3.H9.H3.H3.B5.G2 (antibody, mouse IgG2a, V domains shown)
VH: ESGPGLVRPSQSLSLTCSVTGYSITSGYYWNWIRQFPGSRLEWMGYIKSDGSNNYNPSLKNRISITRDTSKNQFFLKLNSVTTEDTATYFCTREWKAMDYWGQGTSVTVSS
VL: PAIMSASPGEKVTMTCRASSTVSYSYLHWYQQKSGASPQLWIYGTSNLASGVPARFSGSGSGTSYSLTISSVEAEDAATYYCQQYSGYPLTFGAGTKLELKR
notes: also called ATCC PTA-11887

Target: T1, purified recombinant human FRΓ
T1 construct: also called human folate receptor gamma (purified)
T1 sequence (chain, as listed by the source limits assumed): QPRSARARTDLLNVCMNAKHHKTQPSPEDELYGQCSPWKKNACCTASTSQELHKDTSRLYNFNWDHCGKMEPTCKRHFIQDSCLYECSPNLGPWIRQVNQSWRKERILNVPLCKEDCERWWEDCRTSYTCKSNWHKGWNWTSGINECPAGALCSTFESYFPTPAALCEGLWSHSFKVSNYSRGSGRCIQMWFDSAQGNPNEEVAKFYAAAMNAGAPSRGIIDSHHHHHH
Experiment: western blot of 0.5 µg purified protein per lane, reduced and nonreduced, SDS-PAGE
Protocol: (§1) Experiments were conducted to determine whether any of the FRα-specific antibodies, described above, could recognize denatured forms of FRα. […] Lysates were pre-cleared by centrifugation at 13,000 rpm for 15 minutes to remove debris. For reduced and denatured samples, equal amounts of protein (20 μg) were boiled for 10 minutes in NUPAGE® LDS sample buffer (Invitrogen) containing 5% β-mercaptoethanol+40 mM DTT. […] The membrane was blocked in PBST+ 5% non-fat milk for lh at room temperature after which time, the membrane was washed twice with PBST. Immunoblotting was conducted using purified mouse monoclonal antibodies 9F3, 19D4, 24F12, or 26B3 (1 μg/mL) specific for FRα, which were detected with a goat-anti-mouse HRP-conjugated antibody and visualized using SUPERSIGNAL™ West Pico chemiluminescent substrate (Pierce, Rockford, Ill.). Luminescence was visualized using the Omega 12iC molecular imaging system (Ultra-Lum, Claremont, Calif.) with image analysis performed using ULTRAQUANT™ 6.0 software (Ultra-Lum).
(§2) Western blot analyses were also performed using purified folate receptor preparations. For these experiments, 0.5 μg of purified human FRα, β, Γ or Δ, produced as described in Example 1, were incubated in 1× SDS-PAGE sample loading buffer (Invitrogen) with or without 20 mM DTT, boiled for 10 min, and electrophoresed on 4-12% gradient SDS-PAGE gels. Protein was transferred to PVDF membrane and blots probed as described above. Gels were run using Benchmark™ prestained protein ladder (NOVEX®). Gels using purified recombinant FR proteins were also visualized via silverstaining to ensure equal amounts of protein were loaded.

binding result	Binder
no binding (tested: 1 µg/mL)	B1
no binding (tested: 1 µg/mL)	B2
no binding (tested: 1 µg/mL)	B3

Target: T2, purified recombinant human FRβ
T2 construct: also called human folate receptor beta (purified, secreted form)
T2 sequence (chain, as listed by the source limits assumed): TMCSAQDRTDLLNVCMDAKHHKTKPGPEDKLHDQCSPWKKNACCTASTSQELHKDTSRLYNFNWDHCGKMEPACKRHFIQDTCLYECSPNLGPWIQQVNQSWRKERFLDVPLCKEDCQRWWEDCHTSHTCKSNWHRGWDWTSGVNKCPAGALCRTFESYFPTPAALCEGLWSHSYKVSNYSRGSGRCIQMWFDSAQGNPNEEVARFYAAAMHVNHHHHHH
Experiment: as above
Protocol: as §1, §2

binding result	Binder
no binding (tested: 1 µg/mL)	B4
no binding (tested: 1 µg/mL)	B1
no binding (tested: 1 µg/mL)	B2
no binding (tested: 1 µg/mL)	B3

Target: T3, purified recombinant human folate receptor alpha (rh-FRα) (human, UniProt P15328 25-234)
T3 construct: One is secreted from CHO cells, with a human Ig kappa leader and a C-terminal 6x His tag replacing the GPI attachment site; The other is from Sf9 cells, with an N-terminal 6x His tag and the GPI site intact; also called FR-alpha; FOLR1
T3 sequence (P15328 25-234 limits assumed): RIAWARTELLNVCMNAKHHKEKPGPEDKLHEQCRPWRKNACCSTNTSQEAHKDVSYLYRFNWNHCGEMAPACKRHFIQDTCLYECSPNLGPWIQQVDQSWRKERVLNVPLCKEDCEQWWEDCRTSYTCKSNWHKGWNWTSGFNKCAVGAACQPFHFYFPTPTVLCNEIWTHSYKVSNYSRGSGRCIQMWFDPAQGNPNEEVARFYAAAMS
Experiment: SPR, BIACORE T100, antibody captured on anti-mouse IgG, rh-FRα 1-30 nM as analyte, single-cycle kinetics, 1:1 fit
Protocol: Binding characteristics of the purified monoclonal antibodies to FRα were determined by surface plasmon resonance (SPR) experiments. All of the SPR experiments were performed at 25° C. using a BIACORE™ T100 with research grade CM5 chips (GE Healthcare), as specified by the manufacturer. Initially, anti-mouse IgG provided in the mouse antibody capture kit (GE Healthcare) was immobilized by amide coupling to CM5 sensor chips. Mouse anti-FRα monoclonal antibodies (26B3, 24F12, 19D4, or 9F3) were captured on individual flow cells per binding cycle, while the fourth flow cell was used as a reference. Binding experiments were performed with HBS-P (GE Healthcare) as running buffer and at a flow rate of 30 μL/min. Each monoclonal antibody sample (0.5 μg/mL) was injected for 3 minutes to capture the antibody. Various concentrations of purified recombinant human FRα (rh-FRα) (1 nM-30 nM) were then injected over the FRα-specific and reference surfaces for 3 minutes to record binding sensograms using a single-cycle kinetics method. The dissociation profile was monitored for 25 minutes. In between bindings, the surface was regenerated with a 30 μl injection of 10 mM glycine (pH 1.7). The sensograms were processed and fitted to a 1:1 Langmuir binding model using BIACORE™ T100 evaluation software (version 2.0.1).

Kd [nM]	koff [s⁻¹]	kon [M⁻¹ s⁻¹]	Binder
0.715	0.00031	434000	B4
0.567	0.000242	427000	B1
0.0273	1.43e-05	524000	B2
0.102	3.99e-05	393000	B3

Target: T4, human FRα expressed on CHO cells (GPI-linked) (human, UniProt P15328 25-234)
T4 construct: CHO/CHOK1 cells stably expressing GPI-linked human FRα; They were used intact in flow cytometry and as nonreduced whole cell lysates in the western blots; also called native FRα; CHO-FRα
T4 sequence (P15328 25-234 limits assumed): as above
Experiment: flow cytometry on CHO cells expressing FRα, antibody 1 µg/mL, FITC secondary
Protocol: Flow cytometry studies were conducted to assess the ability of selected FRα-specific antibodies to bind to the native protein. For these studies Chinese hamster ovary (CHO) cells expressing FRα, were harvested, washed, and re-suspended in ice-cold growth media (RPMI supplemented with 10% FBS). Cells were incubated for 1 hour on ice with 9F3, 19D4, 24F12, or 26B3 (1 μg/mL), washed and then incubated with FITC-conjugated secondary antibodies [dilution 1:100] (Southern Biotech, Birmingham, Ala.). Prior to analysis, cells were labeled with 7-amino-actinomycin D (7-AAD) (BD Biosciences, Franklin Lakes, N.J.) for the exclusion of nonviable cells. CHO cells not expressing FRα were also subjected to the same experimental procedures, as a negative control. Cells were analyzed on an […]™ Flow Cytometer (GUAVA® Technologies, Hayward, Calif.). The data provided in Table 4 indicate that all four antibodies are capable of binding native FRα.

Geometric Mean	Binder
760	B4
1130	B1
854	B2
777	B3

Target: T5, human folate receptor beta (FRβ) expressed on CHO cells (human, UniProt P14207 17-230)
T5 construct: whole, on cells; also called CHO-FRβ
T5 sequence (P14207 17-230): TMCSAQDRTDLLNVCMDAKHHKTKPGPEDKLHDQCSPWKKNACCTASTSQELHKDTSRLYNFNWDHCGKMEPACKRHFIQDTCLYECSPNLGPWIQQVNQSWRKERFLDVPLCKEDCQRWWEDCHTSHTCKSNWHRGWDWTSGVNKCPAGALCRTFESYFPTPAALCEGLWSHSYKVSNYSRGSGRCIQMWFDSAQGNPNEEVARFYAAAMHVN
Experiment: western blot of nonreduced whole cell lysates of CHO cells, SDS-PAGE

binding result	Binder
no binding (tested: 1 µg/mL)	B4
no binding (tested: 1 µg/mL)	B2
no binding (tested: 1 µg/mL)	B3
